84 variants from the RNAGym collection of RNA variant scans (doi:10.1093/molbev/msab373) can be followed below.

First the molecules themselves.
B1: Azoarcus group I ribozyme (parent)
chain: GUGCCUUGCGCCGGGAAACCACGCAAGGGAUGGUGUCAAAUUCGGCGAAACCUAAGCGCCCGCCCGGGCGUAUGGCAACGCCGAGCCAAGCUUCGGCGCCUGCGCCGAUGAAGGUGUAGAGACUAGACGGCACCCACCUAAGGCAAACGCUAUGGUGAAGGCAUAGUCCAGGGAGUGGCGAAAGUCACACAAACCGG

The variants in the series derive from B1. The series is described as follows: reverse-splicing fitness (ratio to wild type); higher = more active; in vitro selection; Mg2+ level not given. The gist of the method:
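An in vitro group I ribozyme library with randomized positions was T7-transcribed and gel-purified. In triplicate, 10 pmol RNA in EPPS pH 7.5 was reacted with 50 pmoles of a 30-nt RNA substrate for 1 h at 37 °C across several added MgCl2 levels (1–48 mM), then stopped with EDTA. Products were reverse transcribed from a substrate-complementary primer, PCR-amplified and sequenced (HiSeq 4000). Fitness is a variant's read proportion after selection over that before, normalised to wild type.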
For A111C A120G C150A C169G U176A, the reverse-splicing fitness stood at 0.0175.
For A111C A120U A145G C150U C169A U176A the value was 0.00648.
Take A111C A120U A145G C150U C169A U176C: the reverse-splicing fitness was 0.00404.
Consider A111C A120U A145G C150U C169A U176G, for which the reverse-splicing fitness was 0.00278.
With A111C A120U A145G C150A C169G U176G, the reverse-splicing fitness turned out to be 0.00255.
Consider A111C A120U A145G C150A C169G U176A, for which the reverse-splicing fitness stood at 0.00653.
Turning to A111C A120U A145G C150A C169G U176C, the reverse-splicing fitness was determined as 0.00682.
For A111C A120G C169G U176G the value was 0.00449; for A111C A120G C169G U176A, 0.0304; for A111C A120G C169G U176C, 0.0444.
Regarding A111C A120U A145C C150A C169U U176C, the reverse-splicing fitness turned out to be 0.00283.
Take A111C A120U A145C C150A C169U U176G: the reverse-splicing fitness turned out to be 0.00242.
For A111C A120U A145C C150A C169U U176A the value was 0.00457.
Regarding A111C A120G A145U C169G U176G, the reverse-splicing fitness came out at 0.00448.
For A111C A120G A145U C169G U176C the value was 0.0343; for A111C A120G A145U C169G U176A, 0.0277.
Regarding A111C A120U C150A, the reverse-splicing fitness worked out at 0.0711.
With A111C A120U C150U, the reverse-splicing fitness was 0.416.
Turning to A111C A120U C150G, the reverse-splicing fitness came out at 0.0546.
In the case of A111C A120G C150A U176A, the reverse-splicing fitness was determined as 0.0175.
On to A111C A120G C150A U176C, for which the reverse-splicing fitness is 0.0209.
The same measure for A111C A120G C150A U176G: 0.00592.
A111C A120U A145C C169U U176A: the reverse-splicing fitness stood at 0.0108.
For A111C A120U A145C C169U U176G the value was 0.00215; for A111C A120U A145C C169U U176C, 0.0145; for A111C A120U A145G C150U C169U U176A, 0.0118.
For A111C A120U A145G C150U C169U U176C the value was 0.0178.
As for A111C A120U A145G C150U C169U U176G, the reverse-splicing fitness was 0.00321.
For the variant A111C A120G C150A C169U U176G, the reverse-splicing fitness amounted to 0.0056.
The same measure for A111C A120G C150A C169U U176A: 0.0211.
For A111C A120G C150A C169U U176C the value was 0.024; for A111C A120U A145G C150G C169U U176G, 0.00436; for A111C A120U A145G C150G C169U U176C, 0.00769.
The same measure for A111C A120U A145G C150G C169U U176A: 0.00885.
Consider A111C A120U C169A U176A, for which the reverse-splicing fitness was found to be 0.00319.
As to A111C A120U A145G C150A U176A, the reverse-splicing fitness came to 0.046.
Regarding A111C A120U A145G C150A U176C, the reverse-splicing fitness is 0.0554.
Regarding A111C A120U A145G C150A U176G, the reverse-splicing fitness was 0.0111.
For the variant A111C A120U A145C C150A C169A, the reverse-splicing fitness came out at 0.00208.
With A111C A120U A145C C150A C169U, the reverse-splicing fitness is 0.00533.
Turning to A111C A120U A145C C150A C169G, the reverse-splicing fitness is 0.0044.
For the variant A111C A120G C169G, the reverse-splicing fitness was found to be 0.22.
As to A111C A120G C169A, the reverse-splicing fitness is 0.131.
As for A111C A120G C169U, the reverse-splicing fitness is 0.17.
For A111C A120G U176A the value was 0.0401; for A111C A120G U176G, 0.00629.
For A111C A120G U176C the value was 0.0417; for A111C A120U A145C C150A U176G, 0.00735.
As for A111C A120U A145C C150A U176A, the reverse-splicing fitness came to 0.016.
As for A111C A120U A145C C150A U176C, the reverse-splicing fitness amounted to 0.0101.
For A111C A120U A145C C150G C169A U176G, the reverse-splicing fitness came out at 0.00224.
Regarding A111C A120U A145C C150G C169A U176A, the reverse-splicing fitness is 0.00246.
Regarding A111C A120U A145C C150G C169A U176C, the reverse-splicing fitness is 0.00297.
With A111C A120U A145C C150G C169G U176C, the reverse-splicing fitness amounted to 0.0032.
For the variant A111C A120U A145C C150G C169G U176G, the reverse-splicing fitness worked out at 0.00227.
With A111C A120U A145C C150G C169G U176A, the reverse-splicing fitness is 0.00265.
Turning to A111C A120U A145G C169U U176G, the reverse-splicing fitness came to 0.00322.
Turning to A111C A120U A145G C169U U176A, the reverse-splicing fitness stood at 0.0138.
For the variant A111C A120U A145G C169U U176C, the reverse-splicing fitness amounted to 0.0232.
On to A111C A120G C150G U176G, for which the reverse-splicing fitness amounted to 0.00348.
Regarding A111C A120G C150G U176C, the reverse-splicing fitness is 0.0173.
With A111C A120G C150G U176A, the reverse-splicing fitness was found to be 0.0109.
For A111C A120G C169A U176A, the reverse-splicing fitness was 0.0221.
Consider A111C A120G C169A U176G, for which the reverse-splicing fitness was found to be 0.00418.
For A111C A120G C169A U176C the value was 0.0306; for A111C A120G A145U C169U U176A, 0.042; for A111C A120G A145U C169U U176G, 0.00716.
In the case of A111C A120G A145U C169U U176C, the reverse-splicing fitness is 0.0424.
For A111C A120U C150A C169G U176C, the reverse-splicing fitness worked out at 0.00434.
As to A111C A120U C150A C169G U176A, the reverse-splicing fitness amounted to 0.00448.
Turning to A111C A120U C150A C169G U176G, the reverse-splicing fitness came to 0.00245.
Turning to A111C A120G C150G C169U U176G, the reverse-splicing fitness came to 0.00441.
For A111C A120G C150G C169U U176C, the reverse-splicing fitness was 0.0154.
Consider A111C A120G C150G C169U U176A, for which the reverse-splicing fitness worked out at 0.00966.
The same measure for A111C A120U A145U C150A C169G: 0.00604; for A111C A120U A145U C150A C169A: 0.00263.
As for A111C A120U A145U C150A C169U, the reverse-splicing fitness was found to be 0.00653.
A111C A120G C169U U176G: the reverse-splicing fitness stood at 0.00657.
A111C A120G C169U U176A: the reverse-splicing fitness was 0.0433.
The same measure for A111C A120G C169U U176C: 0.0498; for A111C A120U: 0.659.
In the case of A111C A120G C150U C169A U176G, the reverse-splicing fitness amounted to 0.00513.
Consider A111C A120G C150U C169A U176A, for which the reverse-splicing fitness is 0.0176.
Regarding A111C A120G C150U C169A U176C, the reverse-splicing fitness was 0.0197.
